Experimental data reported in article doi:10.1101/2025.05.01.651538 (2025).

Legend:
[1] = target: wild-type unmodified 147bp nucleosome (nucleosome core particle, human histones) (human)
[2] = target: wild-type 185bp nucleosome (nucleosome with symmetric flanking DNA, human histones) (human)

B1: KDM5A^CAT (KDM5A 1–801, minimal catalytically active construct) (domain or fragment)
chain: MAGVGPGGYAAEFVPPPECPVFEPSWEEFTDPLSFIGRIRPLAEKTGICKIRPPKDWQPPFACEVKSFRFTPRVQRLNELEAMTRVRLDFLDQLAKFWELQGSTLKIPVVERKILDLYALSKIVASKGGFEMVTKEKKWSKVGSRLGYLPGKGTGSLLKSHYERILYPYELFQSGVSLMGVQMPNLDLKEKVEPEVLSTDTQTSPEPGTRMNILPKRTRRVKTQSESGDVSRNTELKKLQIFGAGPKVVGLAMGTKDKEDEVTRRRKVTNRSDAFNMQMRQRKGTLSVNFVDLYVCMFCGRGNNEDKLLLCDGCDDSYHTFCLIPPLPDVPKGDWRCPKCVAEECSKPREAFGFEQAVREYTLQSFGEMADNFKSDYFNMPVHMVPTELVEKEFWRLVSSIEEDVIVEYGADISSKDFGSGFPVKDGRRKILPEEEEYALSGWNLNNMPVLEQSVLAHINVDISGMKVPWLYVGMCFSSFCWHIEDHWSYSINYLHWGEPKTWYGVPSHAAEQLEEVMRELAPELFESQPDLLHQLVTIMNPNVLMEHGVPVYRTNQCAGEFVVTFPRAYHSGFNQGYNFAEAVNFCTADWLPIGRQCVNHYRRLRRHCVFSHEELIFKMAADPECLDVGLAAMVCKELTLMTEEETRLRESVVQMGVLMSEEEVFELVPDDERQCSACRTTCFLSALTCSCNPERLVCLYHPTDLCPCPMQKKCLRYRYPLEDLPSLLYGVKVRAQSYDTWVSRVTEALSANFNHKKDLIELRVMLEDAEDRKYPENDLFRKLRDAVKEAETCASVAQLL
- Kd [1]: 4 µM
- Kd [2]: 3 µM
